The supplement of paper PMC12042874
± gives the uncertainty stated by the source.

Experiment: amyloid nucleation score (Sup35N fusion, yeast selection) (log enrichment); library NNK2; higher = more nucleation; inactive = no reads after selection
Summary of the method: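 Yeast lacking psi expressed peptides of 20 random codons fused to Sup35N, received 100 μM copper sulfate for 24 hours, and were then grown for 7 days at 30°C on medium lacking adenine and uracil. Illumina sequencing of input and output plasmid inserts provided the reads. Nucleation scores are DiMSum log enrichments of output over input, centred on the mode of non-aggregating sequences. Any sequence with under 100 input reads was excluded.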

Substance	amyloid nucleation score
VRCKVCPGRAYFDMRAPMQS	-0.512 ± 0.63
ITLGLQLCGFNCMTGLVRWS	-0.079 ± 0.76
WSLDSYSMTAVF	-0.467 ± 0.39
SLLLYYMGGK	5.114 ± 0.042
VFMCVGFLLYHMNSELGPRG	2.88 ± 0.087
SYTVAYISYFMLLLDGWGNR	0.815 ± 0.12
GRYILFFSRSEFDFKIVQSV	2.23 ± 0.21
GVKWSVSFKNWHYWKSMSVV	1.26 ± 0.66
SSWLEVAMTALRSIWYMD	0.103 ± 0.26
HMCHTVLHVSAGY	0.246 ± 0.8
TYSLKFGSVVGRNYNLGY	2.08 ± 0.1
IKATCAGSNIFDNLALKDAS	inactive
HNTAMGLELVPQKKNGVK	-0.06 ± 1
MCVYCVDYWGACRLEILALW	-0.423 ± 0.41
LCVIIMFLIIYYNEEFVWSQ	inactive
NGVKGLKIMDSRSGVT	6.043 ± 0.046
MSVTWYLGNWVTVL	-1.09 ± 0.79
FGFWDLMSCTSRMGTIIRLY	inactive
RFRFGAVNLV	0.849 ± 0.49
VTPTFCETLVKPLHALHTNC	-1.22 ± 0.62
SRLSKTRLPFWHFMNMLKMP	0.126 ± 0.56
WYKVDFNAWLFCKTIAHIFA	-1.1 ± 0.45

Substance	amyloid nucleation score
QVIFI	inactive
ATGSYSMITLDIFQSNCSDA	3.51 ± 0.053
CRVCRNWIWGTLSSGVTSRL	-0.61 ± 0.49
SRYSFYLRFHVLSVMAVQML	0.688 ± 0.81
TWVNYIIRKVRLVTIRLYVY	-0.011 ± 0.65
VKVLSLVFTGMVPMQYSRYA	11.31 ± 0.049
ENHQCGWGLPLCTVVSR	6 ± 0.077
WSCQESIVRSRDDYSRFRCG	3.42 ± 0.13
NIVYESDVVFSCISKYWL	5.426 ± 0.04
YYTCTLSRWRQSAYLGGRLR	0.284 ± 0.26
NASLYVSYGM	1.5 ± 0.39
VKPMMTFIATYGRYNHQFLS	0.861 ± 0.43
RILYLTTDGRKLM	inactive
MYTKVNF	-0.93 ± 0.76
QVFRFSYKCPCHAVG	1.75 ± 0.15
RVMSVCGSYVNRGEADVVSG	0.364 ± 0.18
TFRLRECWCDADLRVGVMSL	0.778 ± 0.47
VAVTLNFLIGVIGCRGILMG	5.482 ± 0.043
SHWCIVYKGLRNVIVC	inactive
LLRCSLHNKLTLSFDFAFVV	inactive
RGRLMCSYLILNFCRSG	3.04 ± 0.12
VTYDCL	inactive

Substance	amyloid nucleation score
YMHILLLRFVQILTIRIVLL	-0.85 ± 0.37
CTIKIGWYWL	7.512 ± 0.07
NVKTKLCAGSKYSFPF	0.213 ± 0.43
MFSIYSGYIVKQC	0.336 ± 0.74
ILIWVVNLYAYVNYFM	3.1 ± 0.062
ADCVSICVSYRRFHLAKYR	2.73 ± 0.11
YQGSLGSDMAISKLFDSDYE	-0.656 ± 1.1
REFLMD	inactive
SLFLDDKEWMKGITKFLMDP	0.419 ± 0.51
VFNFVSFRFDDTVD	6.987 ± 0.04
GCGSNSDLLHPGIFGLCKLV	-0.3 ± 0.31
RDVRQVQRWSYCWRARTRSA	1.19 ± 0.25
NYLSLVGRFNMGWGESNGRR	5.888 ± 0.058
IIWPPMSWELISLNCQCVRK	-0.413 ± 0.63
PLAVGRCGGIAYSVWCTVNL	5.15 ± 0.078
GKRFNFVTCPPVLRR	-0.088 ± 0.34
VKYYQGIGVWSKVWIMFD	0.7 ± 0.42
LRFRVLFVFPRDPW	-0.918 ± 0.78
FYVPSS	-0.158 ± 0.63
LRLSSGLKSVRTRRRM	0.904 ± 0.37
HKKCSRKKFPAPRPSRTNTS	-0.605 ± 0.48
LYVVIIPSEAIHVTKSSHGI	inactive

Substance	amyloid nucleation score
VFFSESERYSGVKLGAVEDT	0.189 ± 0.49
IRNTLPAAIDVSATVTFVIL	3.17 ± 0.12
RVISFIYWSVTGDSDCLLWC	4.24 ± 0.067
SESGR	1.74 ± 0.21
FYKLVAGNLANPCANRTCYL	-0.031 ± 1
FCRWSVTFNFRSMIGPGS	5.344 ± 0.035
VTYFNVYSYCKYSAKGRCAS	6.22 ± 0.081
LRARTVVGEYCYSLYMQFVM	0.213 ± 0.43
RRMMRP	2.2 ± 0.4
PMCPMSIVLCSATLLLELFV	5.414 ± 0.037
IIHYAFSRNWSP	1.54 ± 0.31
GMNQCCPD	-0.455 ± 0.61
YLLSNWTNKVSWFLCVRPQS	2.23 ± 0.12
GVVGSFPRPTSSRGRLDYCN	-0.169 ± 0.55
SFIWSLMSLIEFPVLYKSVV	0.067 ± 0.32
NWVRINYWLRAIIKSELRVG	-0.155 ± 0.49
VSWTPWESIFSGVMV	-0.568 ± 0.61
PRSVVPYR	0.5 ± 0.31
HNSMSWFR	4.45 ± 0.058
